In experiment [1] the target is T1, ScDmc1 (Saccharomyces cerevisiae Dmc1, wild type) (Saccharomyces cerevisiae) (UniProt P25453).
T1 sequence: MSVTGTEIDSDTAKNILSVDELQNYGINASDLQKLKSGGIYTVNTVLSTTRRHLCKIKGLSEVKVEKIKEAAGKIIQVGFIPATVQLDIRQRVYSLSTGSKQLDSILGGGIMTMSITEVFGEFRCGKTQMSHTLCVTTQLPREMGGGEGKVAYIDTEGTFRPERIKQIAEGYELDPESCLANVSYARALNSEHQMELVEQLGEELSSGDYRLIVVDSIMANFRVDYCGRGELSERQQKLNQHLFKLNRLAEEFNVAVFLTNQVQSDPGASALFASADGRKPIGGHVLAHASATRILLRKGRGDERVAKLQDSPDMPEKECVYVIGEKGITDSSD

The target in experiment [2] is T1, ScDmc1 (Saccharomyces cerevisiae Dmc1, wild type) (Saccharomyces cerevisiae). This is another data set of the same source.
Experiment [3] has the same target. This is another data set of the same source.
For experiment [4] the target is unchanged. The source holds these as a separate data set.
Experiment [5] has the same target. The source holds these as a separate data set.
The target is the same in experiment [6]. The source holds these as a separate data set.

B1: ScMei5–Sae3 heterodimer (complex)
chain 1: MHNQEEWLDKDKTLVNEEENTCINHSYTKKDTNNYRVGKSGIKDLKKPTNQKEIAIKNRELTKQLTLLRQENNHLQQACKILSENKIIENRKSIEKWRTICEMELSFILNSTLIKINRMGGYKDFLEKEMEAKKRRLEYQIDNGMEDQICEIKESDDFRQLSEVEKQEWESQMNEQLKELEKKKIAELEKLNKVLHDSEGKDFGMAELCTRLKLDYSLIFPQ
chain 2: MNYLETQLNKKQKQIQEYESMNGNLIKMFEQLSKEKKNDETPKKISSTYIKELKEYNELRDAGLRLAQIIADEKQCKIKDVFEEIGYSMKD
Consider B1, for which, in experiment [1], the negative-stain EM: average Dmc1 filament length with 2 µM Mei5–Sae3 against the control without it (ATP, 70 µM Ca2+, RPA) was found to be 1.5 fold and the negative-stain EM: share of Dmc1 filaments in the extended (active) form with 2 µM Mei5–Sae3 (ATP, 70 µM Ca2+, RPA; 17% without Mei5–Sae3) turned out to be 76%. Moreover, the 3H-ADP retained on Dmc1 filaments (nitrocellulose filter) after adding 0.5, 1 or 2 µM Mei5–Sae3; value at 2 µM in experiment [2] is 65%. Further, the D-loop yield with versus without 0.5 µM Mei5–Sae3 (3 µM Dmc1, 0.2 µM RPA, 70 µM Ca2+, 5 mM Mg2+, ATP) in experiment [3] stood at 2.5 fold. In experiment [4], the negative-stain EM: average Dmc1 filament length with versus without Mei5–Sae3, ADP as cofactor (compressed filaments) was 2.3 fold and the negative-stain EM: average Dmc1 filament length with versus without Mei5–Sae3, AMP–PNP as cofactor is 1.5 fold. Further, the ssDNA-dependent ATP hydrolysis by Dmc1 (TLC), with versus without Mei5–Sae3, 70 µM Ca2+ in experiment [5] was 2 fold. For the same molecule, in experiment [6], the apparent KD of Dmc1 for ssDNA by fluorescence polarisation, fold reduction by 400 nM Mei5–Sae3 (ADP in place of ATP) turned out to be 1.5 fold; the apparent KD of Dmc1 for ssDNA by fluorescence polarisation, fold reduction by 400 nM Mei5–Sae3 (AMP–PNP in place of ATP) was 1.5 fold; the apparent KD of Dmc1 for ssDNA by fluorescence polarisation, fold reduction by 400 nM Mei5–Sae3 (ATP, 70 µM Ca2+, 100 mM NaCl) was found to be 2 fold.
